Assay results as given in patent US11396544 (dated 2022).
Blank lines part the entries; values can stand above or below the binder they belong to.

What was measured:
[1] = target: T1, human CD22 (cell surface) (human, UniProt P20273); assay: FACS, Nalm6
[2] = target: T1, human CD22 (cell surface); assay: FACS, HEK293/hCD20/hCD22
[3] = target: T1, human CD22 (cell surface); assay: FACS, Raji/CD80 and CD86 negative
hCD28.mmH = hCD28.mmH (human); assay: SPR, 25C
[4] = target: human CD28 (cell surface) (human, UniProt P10747); assay: FACS, Jurkat

EC50 [1]: 18 nM
EC50 [2]: 11.4 nM
EC50 [3]: 14.9 nM
B1: REGN5838 (CD22 arm) (antibody, V domains shown)
VH: EVQLVESGGGLVQPGGSLKLSCAASGFTFSGSDMHWVRQASGKGLEWVGRIRNQPNSYATAYAASVKGRFTISRDDSKNTAHLQMNSLKTEDTAVYFCTRQKQVVYNYHHYYGMDVWGQGTTVTVSS
VL: not shown

EC50 [1]: 13 nM
EC50 [3]: 9.76 nM
B2: REGN5837 (CD22 arm) (antibody, V domains shown)
VH: EVQLVQSGAEVKKPGESLKISCKGSGYNFATYWIAWVRQMPGKGLELMGIIYPGDSETTYNPSFQGQVTISADKSISNAYLQWSSLKASDTAMYYCARVGGYCSGTSCHNWFDPWGLGTLVTVSS
VL: not shown

Kd (hCD28.mmH): 404 nM
EC50 [4]: 23 nM
B3: REGN5838 (CD28 arm) (antibody, V domains shown)
VH: QVQLQESGPGLVKPSETLSLTCTVSGGSISSYYWSWIRQPPGKGLEWIGYIYYSGITHYNPSLKSRVTISVDTSKIQFSLKLSSVTAADTAVYYCARWGVRRDYYYYGMDVWGQGTTVTVSS
VL: not shown

EC50 [4]: 21 nM
B4: REGN5837 (CD28 arm) (antibody, V domains shown)
VH: B3 VH
VL: not shown
